Measurements as given in US8586538B2, “Method of treating a patient suffering from a bleeding disorder comprising administering an antibody against the A3-C1 of FVIII” (Stichting Sanquin Bloedvoorziening, priority 2002, dated 2013).

Target: T1, interaction between FVIII light chain and LRP (Homo sapiens, UniProt P00451)
T1 construct: from tissue; host or cells: FVIII light chain from plasma; LRP from placenta
T1 sequence (P00451 1668-2351 limits assumed): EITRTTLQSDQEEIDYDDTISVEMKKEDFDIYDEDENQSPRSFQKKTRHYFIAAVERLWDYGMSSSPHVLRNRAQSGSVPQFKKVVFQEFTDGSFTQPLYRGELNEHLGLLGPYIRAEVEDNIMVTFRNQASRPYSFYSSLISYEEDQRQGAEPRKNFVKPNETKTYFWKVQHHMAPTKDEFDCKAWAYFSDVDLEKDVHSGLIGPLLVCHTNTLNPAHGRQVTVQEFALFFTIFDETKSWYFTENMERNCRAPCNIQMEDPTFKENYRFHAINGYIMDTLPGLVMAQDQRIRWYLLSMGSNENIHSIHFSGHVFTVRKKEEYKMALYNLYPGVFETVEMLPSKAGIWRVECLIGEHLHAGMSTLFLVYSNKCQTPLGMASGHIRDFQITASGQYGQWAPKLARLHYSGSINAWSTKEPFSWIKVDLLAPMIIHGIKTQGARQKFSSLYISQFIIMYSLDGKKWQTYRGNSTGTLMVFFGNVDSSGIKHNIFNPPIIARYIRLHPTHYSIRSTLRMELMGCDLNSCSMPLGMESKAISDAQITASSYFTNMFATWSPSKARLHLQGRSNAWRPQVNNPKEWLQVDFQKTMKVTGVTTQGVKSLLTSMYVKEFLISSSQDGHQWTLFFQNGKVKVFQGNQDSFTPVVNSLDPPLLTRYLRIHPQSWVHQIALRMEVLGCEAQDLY
Assay: SPR competition: FVIII light chain binding to immobilized LRP
Settings: FVIII light chain 50 nM; scFv 20-500 nM
Description: FIG. 4. Effect of scFv antibody fragments on the interaction between FVIII light chain and LRP. A, FVIII light chain (LCh) (25 nM) was incubated with immobilized LRP cluster II (1 pmol/well) in a volume of 50 μl in 150 mM NaCl, 5 mM CaCl2, 1% (w/v) HSA, 0.1% Tween® 20, and 50 mM Tris (pH 7.4) in the presence of various concentrations (0-100 nM) of scFv KM41 (closed circles) or scFv KM36 (open circles) for 2 h at 37° C. After washing with the same buffer, bound FVIII light chain was quantified by incubation with peroxidase-conjugated anti-FVIII antibody CLB-CAg 12 for 15 min at 37° C. Residual binding is expressed as the percentage of binding in the absence of competitor and is corrected for nonspecific binding (less than 5% relative to binding to LRP cluster II-immobilized wells). […] Binding was assessed in the absence (curve 1) or in the presence of increasing concentrations of scFv KM41 (20, 60, 300, 500 nM, curves 2-5, respectively). […]
The kinetics of protein interactions was determined by surface plasmon resonance (SPR) analysis, employing a BIAcore™2000 biosensor system (Biacore AS, Uppsala, Sweden). […] Association of analyte was assessed in 150 mM NaCl, 2 mM CaCl2, 0.005% (v/v) Tween® 20, and 20 mM Hepes (pH 7.4) for 2 min, at a flow rate of 20 μl/min at 25° C. […] Equilibrium dissociation constants (kd) were calculated from the ratio koff/kon. […]

B1: scFv KM41: scFv antibody fragment directed against FVIII region Arg^1803-Lys^1818 (protein)
scFv: QVQLLQSAADVKKPGASVKVSCTASGYIFTSYDIDWVRQATGQGLEWMGWMNPNSGNAGFAQKFKGRLTLTRDTSTSTAYMELRRLESEDTAVYYCARSTPHSYSGSGLPPTSDSWGQGTLVTVSSGGGGSGGGGSGGGGSEIVLTQSPGTLSLSPGERATLSCRASQSVSSSFLGWYQQKPGQAPRLLIYGASSRATGIPDRFSGSGSGTDFTLTISRLEPEDFAVYYCQQYGISPLTFGGGTKLEIKRAAAEQKLISEEDLNGAAHHHHHH
B1 was tested, and the “Effect on association of FVIII light chain with immobilized LRP” value was “only partially inhibits”.
